Assay results from the RNAGym collection of RNA variant scans (doi:10.1073/pnas.2313332121).

B1: TPR t1 (parent)
chain: GACCAAUCUGCCCUCAGAGCUCGAGAACAUCUUCGGAUGCAGAGGAGGCAGGCUUCGGUGGCGCGAUAGCGCCAACGUCCUCAACCUCCAAUGCAUCCCACCACAUGAUGAUGCCUGAAGAGCCUUGGUUUUUUG

Variants of: B1
Test: polymerase ribozyme fitness, log enrichment relative to wild type (log ratio); higher = more active; in vitro selection for triplet polymerase activity
Procedure, shortened: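 Input and output libraries were sequenced on Illumina after a single in vitro selection round, run in triplicate on PCR-built, transcribed mutant libraries of each subunit of a heterodimeric triplet polymerase ribozyme. Selection annealed libraries to a biotinylated primer, the partner subunit and triplets, incubated them frozen at −7 °C, then gel-excised extended constructs for streptavidin-bead capture and RT-PCR. Genotypes with ≥10 input reads and ≥1 read per output were kept. Fitness is the logarithm, taken in base 2, of genotype enrichment divided by wild-type enrichment, using inverse-variance-weighted replicate averages.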

Q: For GACCAAUCUGCCCUCAGAGCUCGAGAACAUCUUCGGAUGCAGAGGAGGCAGGCUUCGGUGGCGCGAUAGCGCCAACUUCCUCAACCUCCAAUGCAUCCCACCACAUGAUGAUGCCUGAAGAACCUUGGUGUUUUG, which “polymerase ribozyme fitness (log ratio)” value is on record?
A: -0.666

Q: For GACCAAUCUGCCCUCAGAGCUCGAGAACAUCUUCGGAUGCAGAGGAGGCAGGCUUCGGUGCCGCGAUAGCGCCAACGUCCUCAACCUCCAAUGCAUCCCACCAUAUGAUAAUGCCUGAAGAGCCUUGGUUUUUUG, which “polymerase ribozyme fitness (log ratio)” value is on record?
A: -2.86

Q: With GACCAAUCUGCCCUCCGAGCUCGAGAACAUCUUCGGAUGCAUAGGAGGCAGGCUUCCGUGGCGCGAUAGCGCCAACGUCCUCAACCUCCAAUGCAUCCCACCACAUGAUGAUGCCUGUAGAGCCUUGGUUUUUUG as the variant, how does the “polymerase ribozyme fitness (log ratio)” value read?
A: -2.43

Q: With GACCAAUCUGACCUCAGAGCUCGAGAACAUCUUCGGAUGCAGAGGAGGCAGGCUUCGGUGGCGCGAUAGCGCUAACGUCCUCAACCUCCAAUGUAUCCCACCACAUGAUGAUGCCUGAAGAGCCUUGGUUUUUUG as the variant, how does the “polymerase ribozyme fitness (log ratio)” value read?
A: -1.82

Q: Which “polymerase ribozyme fitness (log ratio)” value does the source give for GACCAAUCUGCCCUCAGAGCUCGAGAACAUCUUCGGAUGCAGAGGAGGCAGGCUUCGGUGGCGCGAAAGCGCCAACGUCCUCAACCUCCAAUGCAUCCCACCACAUGAUGAUGCCUGAAGAGUCUUGGUUUUUUG here?
A: -5.81

Q: With GACCGAUCUGCCCUCAGAGCUCGAGAACAUCUUCGGAUGCAGAGGAGGCAGGCUUCUGUGGCGCGAUAGCGCCAACGUCCUCAACCUCCAAUGCAUCCCUCCACAUGAUGAUGCCUGAAGAGCCUUGGUUUUUUG as the variant, how does the “polymerase ribozyme fitness (log ratio)” value read?
A: -1.5

Q: For GACCAAUCUGCCCUCAGAGCUCGAGAACAUCUUCGGAUGCAGAGGAGGCAGGCUUCGGUGCCGCGAUAGCGCCAACGUCCUCAACCUCCAAUUCAUCCCACCACAUGAUGAUGCCUGAAGAGCCUUGGUAUUUUG, which “polymerase ribozyme fitness (log ratio)” value is on record?
A: -3.65

Q: With GACCAAUCUGCCCUCAAAGCUCGAGAACAUCUUCGGAUGCAGAGGAGGCAGGCCUCGGUGGCGCGAUAGCGCCAACGUCCUCAACCUCCAAUGCAUCCCACCACAUGAUGAUGCCUGAAUAGCCUUGGUUUUUUG as the variant, how does the “polymerase ribozyme fitness (log ratio)” value read?
A: -1.75

Q: For GAUCAAUCUGCCCACAGAGCUCGAGAACAUCUUCGGAUGCAGAGGAGGCAGGCUUCGGUGGCGCGAUAGCGCCAACGUCCUCAACCUCCAAUGCAUCCCACCACAUGAUGAUGCCUGAAGAGCCUUGGUUUUUUG, which “polymerase ribozyme fitness (log ratio)” value is on record?
A: -2.47

Q: Which “polymerase ribozyme fitness (log ratio)” value does the source give for GACCAAUCUGCCCUCAGAGCUCGAGAACAUCUUCGGAUGCAGAGGAGGCAGGCUACAGUGACGCGAUAGCGCCAACAUCCUCAACCACCAAUGCAUCCCCCCACAUGAUGAUGCCUGAAGAGCCUUGGUUUUUUG here?
A: -1.72

Q: Which “polymerase ribozyme fitness (log ratio)” value does the source give for GACCAAUCUGCCCUCAGCGCUCGAGAACAUCUUCGGAUGCAGAGGAGGCAGGCUUCGGUGGCGCGAUAGCGCCAACGUCCUCAACCUCCAAUGCAUCCCACCACAUGAUGAUGCCUGAAGAGCUUUGGUUUUUUG here?
A: -1.22

Q: Which “polymerase ribozyme fitness (log ratio)” value does the source give for GACCAGUCUAUCCUCAGAGCUCGAGAACAUCUUCGGAUGCAGAGGAGGCAGGCUUCGGUGACGCGAUAGCGCCAACGUCCUCAACCUCCAAUGCAUCCCUCCACAUGAUGAUGCCUGAAGAGCCUUGAUUUUUUG here?
A: -2.69

Q: With GACCAAUCUGCCCUCAGAGCUCGAGAACAUCUUCGGAUGCAGAGGAGGCAGGCUUCGGUGGCGCGAUAGCGCCAACGUCCUCAACCUCCAAUGCAUCCCACCACAUAAUGAUGCCUGAAGAGCCUUGGUCUUUUG as the variant, how does the “polymerase ribozyme fitness (log ratio)” value read?
A: -4.85

Q: With GUCCAAUCUGCCCUCAGAGCUCGAGAACAUCUUCGGAUGCAGAGGAGGCAGGCUUCGCUGGCGCGAUAGCGGCAACGUCCUCAACCUUCAAUGCAUCCCACCACAUGAUGAUGCCUGAAGAGCCUUGGUUUUUUG as the variant, how does the “polymerase ribozyme fitness (log ratio)” value read?
A: -4.39

Q: Which “polymerase ribozyme fitness (log ratio)” value does the source give for GACCAAUCUGCCCUCAGAGCUCGAGAACAUCUUCGGAUGCAGAGGAGGCAGGGUUCGGUGGCGUGAUAGCGCCAACGUCCUCAACCUCCAAUGCAUCCCACCACAUGAUUAUGCCUGAAGAGCCUUGGUUUUUUG here?
A: -3.95

Q: For GACCAAUCUGCCCUCAGAGCUCGAGAACAUCUUCGGAUGCAGAGGAGGCAGGCUUCGGUGGCGCGAUAGCGCCAACGUCCUCAACCUCGAAAGCAUCCCACCACAUGAUGAUGCCUGAAGAACCUUGGUUUUUUG, which “polymerase ribozyme fitness (log ratio)” value is on record?
A: -4.41

Q: For GACCAAUUUGCCCUCAGAGCUCGAGAACAUCUUCGGAUGCAGAGGAGGCAGGAUUCGGUGGCGCGAUAGCGCGAACGUCCUCAACCUCCAAUGCAUCCCACCACAUGAUGAUGCCUGAAGAGCCUUGGUUUUUUG, which “polymerase ribozyme fitness (log ratio)” value is on record?
A: -0.563

Q: With GACCAAUAUGCCCUCAGAGCUCGAGAACAUCUUCGGAUGCUGAGGAGGCAGGCUUCGGUGACGCGAUAGCGCCAACGUCCUCAACAUCCAAUGCAUCCCACCACAUGAUGAUGCCUGAAGAGCCUUGGUUUUUUG as the variant, how does the “polymerase ribozyme fitness (log ratio)” value read?
A: -1.24

Q: Which “polymerase ribozyme fitness (log ratio)” value does the source give for GACCAAUCUGCCCUCAGAGCUCGAGAACAUCUUCGGAUGGAGAGGAGGAAGGCUUCGGUGGCGUGAUAGCGCCAACGUCCUCAACCUCCAAUGCAUCCCACCACAUGAUGAUGCCUGAUGAGCCUAGGUUUUUUG here?
A: -3.13

Q: Which “polymerase ribozyme fitness (log ratio)” value does the source give for GACCAAUCUGCCCUCAGAGCUCGAGAACAUCUUCGGAUGCAGAGGAGGGAGGAUUCGGUGGCGUGAUAGCGCCAACGUCCUCAACCUCCAAUGCAUCCCACCACAUGAUGAUGCCUGAAGAGCCUUGGUUUUUUG here?
A: -0.365

Q: Which “polymerase ribozyme fitness (log ratio)” value does the source give for GACCAAUCUGCCUUCAGAGCUCGAGAACAUCUUCGGAUGCAGAGGUGGCAGGCUUCGGUGGCGCGAUAGCGCCAACGUCCUCAACCUCCAAUGCAUCCCACCACAUGAUACUGCCUGACGAGCCUUGGUUUUUUG here?
A: -5.5
